Measurements reported in patent US8691944B2, “Fibronectin polypeptides and methods of use” (The Research Foundation for the State University of New York, priority 2005, dated 2014).

How the values were obtained:
PDGF-BB [1] = target: T1, PDGF-BB (Homo sapiens, UniProt P01127); assay: Equilibrium binding of PDGF-BB to FN, FN domains and peptides
From the text: (§1) This led us to speculate that PDGF was binding to the engineered ECM through the H or HV domain since vascular endothelial GF (VEGF), a member of the PDGF superfamily, had been reported to bind H and remain active while bound.
(§2) The survival of FN-null fibroblasts in the presence to PDGF-BB required substrate coated with intact FN or FNIII8-11+a PDGF-binding FN domain. […] To address this directly, we performed equilibrium binding assays with PDGF-BB to FN adsorbed to a surface or coupled to agarose beads. In addition, we also investigated the ability of other growth factors to bind intact FN.

PDGF-BB [2] = target: T1, PDGF-BB; assay: Surface plasmon resonance kinetic binding of PDGF-BB to FN domains; conditions: for Kd: kinetic binding
From the text: VEGF, TGF-β1, PDGF-BB and FGF-2 bound IIICS with similar affinities (KD˜10^−7 M). […] The tested biological activities of GFs bound to a FN functional domain were retained or enhanced. […] In addition, our studies provide important information regarding the delivery of GFs and the sequestering of GFs, as appropriate, for therapeutic (e.g., surgical) or aesthetic indications, including wound healing treatments (where an aim is GF delivery) and cancer treatments (where an aim is GF sequestration). Where FN fragments are used to deliver GFs, they may be described as maintaining, activating, stabilizing or enhancing GF activity. […]

TGF-β1 [3] = target: T2, TGF-β1 (Homo sapiens, UniProt P01137); assay: Equilibrium binding of TGF-β1 to FN, FN domains and peptides
T2 sequence (P01137 279-390 limits assumed, species assumed): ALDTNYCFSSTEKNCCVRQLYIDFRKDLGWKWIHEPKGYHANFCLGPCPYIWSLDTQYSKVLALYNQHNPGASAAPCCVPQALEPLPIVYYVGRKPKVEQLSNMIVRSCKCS
Procedure: These peptides represent domains that follow the sequence pattern [QN]-X(1,2)-[ST]-X(0,1)-[IG]-[QS]-[KRQ]-[YTM]-[IG]-X(4,5)-X(0,1)-[KR]-X(1,2)-X(1,2)-[RT]-X(1,2)-[KQTS]-X(2)-T and that bind TGF-β1 with a certain affinity. […] We know of no other peptides in the human genome database that follow this pattern.
(§3) To determine whether FN domains bind TGF-β1 and bFGF, equilibrium and kinetic binding was performed.

TGF-β1 [4] = target: T2, TGF-β1; assay: Plasmon surface resonance kinetic binding of TGF-β1 to FN domains; conditions: for Kd: plasmon (surface) resonance, kinetic binding
From the text: (§4) VEGF, TGF-β1, PDGF-BB and FGF-2 bound IIICS with similar affinities (KD˜10^−7 M). […] The tested biological activities of GFs bound to a FN functional domain were retained or enhanced. […] In addition, our studies provide important information regarding the delivery of GFs and the sequestering of GFs, as appropriate, for therapeutic (e.g., surgical) or aesthetic indications, including wound healing treatments (where an aim is GF delivery) and cancer treatments (where an aim is GF sequestration). Where FN fragments are used to deliver GFs, they may be described as maintaining, activating, stabilizing or enhancing GF activity.
as §3

bFGF = bFGF (Homo sapiens, UniProt P09038); assay: Equilibrium binding of bFGF (FGF-2) to FN, FN domains and peptides; conditions: method not specified (equilibrium and kinetic binding performed); read-out: KD, bFGF binding
bFGF, sequence (P09038 143-288): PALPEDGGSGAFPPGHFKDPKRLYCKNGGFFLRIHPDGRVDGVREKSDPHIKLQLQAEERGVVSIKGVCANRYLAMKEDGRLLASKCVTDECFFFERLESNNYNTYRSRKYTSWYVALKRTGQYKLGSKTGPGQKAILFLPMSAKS
Procedure: as §2, §3

FGF-2 = FGF-2 (Homo sapiens, UniProt P09038); assay: Plasmon resonance binding of FGF-2 to FN domains
FGF-2, sequence (P09038 143-288): as above
From the text: as §4

fibroblast chemotaxis = assay: Fibroblast chemotaxis to GFs in the presence or absence of FN domains; type: cell-based; conditions: in solution
Procedure: To determine whether FN functional domains modulated TGF-β1, bFGF or PDGF-BB activity in solution, fibroblast chemotaxis was performed in response to the GFs in the presence or absence of FN domains.

[5] = tested on: mouse fibroblasts null for FN (FN−/−); assay: Survival of FN-null fibroblasts on FN domains with PDGF-BB; type: cell-based; conditions: for FN-null cell survival / proliferation with PDGF-BB: FNIII8-11 + the named domain, or named protein
From the text: To further investigate the response of cells to PDGF-BB bound to FN domains, we investigated the survival response of mouse fibroblasts null for FN (FN−/−). First we determined the response of FN-null cells to PDGF-BB in the absence of serum or other sources of exogenous FN. […] […] […] Importantly, differential response of FN-null cells, plated on different FN domains, to PDGF-BB was not secondary to differences in attachment as judged by cell counts two hours after plating. The FNIII8-11 central cell binding domain was present in all circumstances.

GFs = assay: Growth factor binding to FN domains (GFs in general)
From the text: as §1

VEGF = assay: Plasmon resonance binding of VEGF to FN domains
From the text: as §4

EGF = EGF (Homo sapiens, UniProt P01133); assay: Binding of EGF to FN, FN domains and peptides
EGF, sequence (P01133 971-1023 limits assumed, species assumed): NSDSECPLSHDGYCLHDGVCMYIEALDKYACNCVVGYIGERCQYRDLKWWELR
From the text: as §4, §2, §3

[6] = method not specified (equilibrium and kinetic binding performed)

T1 sequence (P01127 82-190 limits assumed): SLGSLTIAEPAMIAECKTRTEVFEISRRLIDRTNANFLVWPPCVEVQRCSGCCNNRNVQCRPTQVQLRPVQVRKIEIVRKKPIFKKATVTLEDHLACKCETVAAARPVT

B1: FNIII12-13: FN type III repeats 12-13 (protein)
chain: AIPAPTDLKFTQVTPTSLSAQWTPPNVQLTGYRVRVTPKEKTGPMKEINLAPDSSSVVVSGLMVATKYEVSVYALKDTLTSRPAQGVVTTLENVSPPRRARVTDATETTITISWRTKTETITGFQVDAVPANGQTPIQRTIKPDVRSYTITGLQPGTDYKIYLYTLNDNARSSPVVIDAST
- Kd (PDGF-BB [1]): 75 nM

B2: FNIII12-15: heparin II binding domain of FN (protein)
chain: MGSTIPAPTDLKFTQVTPTSLSAQWTPPNVQLTGYRVRVTPKEKTGPMKEINLAPDSSSVVVSGLMVATKYEVSVYALKDTLTSRPAQGVVTTLENVSPPRRARVTDATETTITISWRTKTETITGFQVDAVPANGQTPIQRTIKPDVRSYTITGLQPGTDYKIYLYTLNDNARSSPVVIDASTAIDAPSNLRFLATTPNSLLVSWQPPRARITGYIIKYEKPGSPPREVVPRPRPGVTEATITGLEPGTEYTIYVIALKNNQKSEPLIGRKKTGQEALSQTTISWAPFQDTSEYIISCHPVGTDEEPLQFRVPGTSTSATLTGLTRGATYNVIVEALKDQQRHKVREEVVTVGNSVNEGTSHHHHHHC
- Kd (PDGF-BB [1]): 6.8 nM
- Kd (PDGF-BB [2]): 68 nM
- Kd (TGF-β1 [3]; [6]): 16 nM
- Kd (TGF-β1 [4]): 16 nM
- Kd (bFGF): 130 nM
- Kd (FGF-2): 170 nM

B3: FNIII3-6: recombinant FN type III repeats 3-6 (protein)
chain: MGSAPDAPPDTTVDQVDDTSIVVRWSRPQAPITGYRIVYSPSVEGSSTELNLPETANSVTLSDLQPGVQYNITIYAVEENQESTPVVIQQETTGTPRSDTVPSPRDLQFVEVTDVKVTIMWTPPESAVTGYRVDVIPVNLPGEHGQRLPISRNTFAEVTGLSPGVTYYFKVFAVSHGRESKPLTAQQTTKLDAPTNLQFVNETDSTVLVRWTPPRAQITGYRLTVGLTRRGQPRQYNVGPSVSKYPLRNLQPASEYTVSLVAIKGNQESPKATGVFTTLQPGSSIPPYNTEVTETTIVITWTPAPRIGFKLGVRPSQGGEAPREVTSDSGSIVVSGLTPGVEYVYTIQVLRDGQERDAPIVNKVVTTSHHHHHHC
- PDGF-BB binding (in words) (PDGF-BB [1]): did not
- enhancement of chemotactic activity of TGF-β1, bFGF and PDGF-BB (fibroblast chemotaxis): did not enhance
- PDGF-BB binding (in words) (PDGF-BB [2]): no binding
- support of FN-null fibroblast survival in the presence of PDGF-BB ([5]; substrate coating, FNIII8-11 alone or + named domain): did not support cell survival
- binding of any GF (in words) (GFs): In no case did any GF bind

B4: FNIII12-14: recombinant FN type III repeats 12-14, heparinII-binding domain (protein)
chain: MGSAIPAPTDLKFTQVTPTSLSAQWTPPNVQLTGYRVRVTPKEKTGPMKEINLAPDSSSVVVSGLMVATKYEVSVYALKDTLTSRPAQGVVTTLENVSPPRRARVTDATETTITISWRTKTETITGFQVDAVPANGQTPIQRTIKPDVRSYTITGLQPGTDYKIYLYTLNDNARSSPVVIDASTAIDAPSNLRFLATTPNSLLVSWQPPRARITGYIIKYEKPGSPPREVVPRPRPGVTEATITGLEPGTEYTIYVIALKNNQKSEPLIGRKKTTSHHHHHHC
- Kd (PDGF-BB [1]): 35 nM
- Kd (PDGF-BB [2]): 55 nM
- Kd (TGF-β1 [3]; [6]): 7.6 nM
- Kd (TGF-β1 [4]): 7.6 nM
- FN-null cell survival / proliferation with PDGF-BB [5]: enhance survival
- FN-null cell survival with PDGF ([5]; plastic precoated with 0.15 μM GST-tagged FNIII8-11 ± the named domain, or named protein, PDGF-BB added 1 day after plating, 3 days): increased survival
- Kd (bFGF): 1.9 nM

B5: FNIII12-V15: composite heparinII-binding and variably-spliced IIICS domains (protein)
chain: MGSAIPAPTDLKFTQVTPTSLSAQWTPPNVQLTGYRVRVTPKEKTGPMKEINLAPDSSSVVVSGLMVATKYEVSVYALKDTLTSRPAQGVVTTLENVSPPRRARVTDATETTITISWRTKTETITGFQVDAVPANGQTPIQRTIKPDVRSYTITGLQPGTDYKIYLYTLNDNARSSPVVIDASTAIDAPSNLRFLATTPNSLLVSWQPPRARITGYIIKYEKPGSPPREVVPRPRPGVTEATITGLEPGTEYTIYVIALKNNQKSEPLIGRKKTDELPQLVTLPHPNLHGPEILDVPSTVQKTPFVTHPGYDTGNGIQLPGTSGQQPSVGQQMIFEEHGFRRTTPPTTATPIRHRPRPYPPNVGEEIQIGHIPREDVDYHLYPHGPGLNPNASTGQEALSQTTISWAPFQDTSEYIISCHPVGTDEEPLQFRVPGTSTSATLTGLTRGATYNVIVEALKDQQRHKVREEVVTVGNSVNEGTSHHHHHHC
- Kd (PDGF-BB [1]): 21 nM
- chemotactic activity when assayed alone (fibroblast chemotaxis): no chemotactic activity
- enhancement of chemotactic activity of TGF-β1, bFGF and PDGF-BB (fibroblast chemotaxis): enhanced the chemotactic activity
- Kd (PDGF-BB [2]): 17 nM
- Kd (TGF-β1 [3]; equilibrium binding): 97 nM
- Kd (VEGF): 0.6 nM
- EGF binding (in words) (EGF): all GFs, except EGF, bound
- FN-null cell survival / proliferation with PDGF-BB [5]: enhance survival
- Kd (bFGF): 37 nM
- GF binding on addition of salt or acid (GFs; up to 2.5 M NaCl added or pH lowered to about 2.0): failed to demonstrate any diminution
- Kd (FGF-2): 37 nM

B6: FNIII1-7: FN type III repeats 1-7 (protein)
chain: GPVEVFITETPSQPNSHPIQWNAPQPSHISKYILRWRPKNSVGRWKEATIPGHLNSYTIKGLKPGVVYEGQLISIQQYGHQEVTRFDFTTTSTSTPVTSNTVTGETTPFSPLVATSESVTEITASSFVVSWVSASDTVSGFRVEYELSEEGDEPQYLDLPSTATSVNIPDLLPGRKYIVNVYQISEDGEQSLILSTSQTTAPDAPPDTTVDQVDDTSIVVRWSRPQAPITGYRIVYSPSVEGSSTELNLPETANSVTLSDLQPGVQYNITIYAVEENQESTPVVIQQETTGTPRSDTVPSPRDLQFVEVTDVKVTIMWTPPESAVTGYRVDVIPVNLPGEHGQRLPISRNTFAEVTGLSPGVTYYFKVFAVSHGRESKPLTAQQTTKLDAPTNLQFVNETDSTVLVRWTPPRAQITGYRLTVGLTRRGQPRQYNVGPSVSKYPLRNLQPASEYTVSLVAIKGNQESPKATGVFTTLQPGSSIPPYNTEVTETTIVITWTPAPRIGFKLGVRPSQGGEAPREVTSDSGSIVVSGLTPGVEYVYTIQVLRDGQERDAPIVNKVVTPLSPPTNLHLEANPDTGVLTVSWERSTTPDITGYRITTTPTNGQQGNSLEEVVHADQSSCTFDNLSPGLEYNVSVYTVKDDKESVPISDTIIP
- Kd (PDGF-BB [1]): 75 nM
- PDGF-BB binding (in words) (PDGF-BB [2]): all four GFs bound
- Kd (PDGF-BB [2]): 100 nM
- Kd (TGF-β1 [3]; equilibrium binding): 17 nM
- VEGF binding (in words) (VEGF): all four GFs bound
- Kd (TGF-β1 [4]): 18 nM
- TGF-β1 binding (in words) (TGF-β1 [4]; plasmon resonance): all four GFs bound
- Kd (bFGF): 4.1 nM
- FGF-2 binding (in words) (FGF-2): all four GFs bound
